According to patent publication US20210388079A1 (published 2021):
Values belong to the binder of their own block, whether it stands above or below them.

Assays:
[1] = target: T1, Serine protease inhibitor Kazal-type 2 (SPINK2); peptide SPINK2-001 peptide on HLA-A*02:01 (human); test: IFNγ release; T2 cells loaded with 10 µM to 10 pM peptide (FIG. 28); full-length, on cells
T1 peptide: ALSVLRLAL

[2] = target: T1, Serine protease inhibitor Kazal-type 2 …; test: IFNγ release; T2 cells loaded with 10 µM to 10 pM peptide (FIG. 30); full-length, on cells
[3] = target: T1, Serine protease inhibitor Kazal-type 2 …; test: IFNγ release; T2 cells loaded with 10 µM to 10 pM peptide (FIG. 27); full-length, on cells
[4] = target: T1, Serine protease inhibitor Kazal-type 2 …; test: IFNγ release; T2 cells loaded with 10 µM to 10 pM peptide (FIG. 23); full-length, on cells

B3: R44P3E7 (TCR, V domains shown)
Valpha: GEDVEQSLFLSVREGDSSVINCTYTDSSSTYLYWYKQEPGAGLQLLTYIFSNMDMKQDQRLTVLLNKKDKHLSLRIADTQTGDSAIYFCAEINNNARLMFGDGTQLVVKP
Vbeta: AAGVIQSPRHLIKEKRETATLKCYPIPRHDTVYWYQQGPGQDPQFLISFYEKMQSDKGSIPDRFSAQQFSDYHSELNMSSLELGDSALYFCASSPPDQNTQYFGPGTRLTVL
EC50 of peptide [3]: 0.86 nM

B4: R40P1C2 (TCR, V domains shown)
Valpha: AQTVTQSQPEMSVQEAETVTLSCTYDTSESDYYLFWYKQPPSRQMILVIRQEAYKQQNATENRFSVNFQKAAKSFSLKISDSQLGDAAMYFCAYLNYQLIWGAGTKLIIKP
Vbeta: EPEVTQTPSHQVTQMGQEVILRCVPISNHLYFYWYRQILGQKVEFLVSFYNNEISEKSEIFDDQFSVERPDGSNFTLKIRSTKLEDSAMYFCASSEMTAVGQYFGPGTRLTVT
EC50 of peptide [4]: 1.94 nM

Now from value to binder:

EC50 of peptide [1]: > 83.2 nM
B1: R49P2B7 (TCR, V domains shown)
Valpha: AQSVTQLGSHVSVSEGALVLLRCNYSSSVPPYLFWYVQYPNQGLQLLLKYTTGATLVKGINGFEAEFKKSETSFHLTKPSAHMSDAAEYFCAVRIFGNEKLTFGTGTRLTIIP
Vbeta: DVKVTQSSRYLVKRTGEKVFLECVQDMDHENMFWYRQDPGLGLRLIYFSYDVKMKEKGDIPEGYSVSREKKERFSLILESASTNQTSMYLCASSLMGELTGELFFGEGSRLTVL

EC50 of peptide [2]: 0.86 nM
B2: R59P2A7 (TCR, V domains shown)
Valpha: QKEVEQNSGPLSVPEGAIASLNCTYSDRGSQSFFWYRQYSGKSPELIMSIYSNGDKEDGRFTAQLNKASQYVSLLIRDSQPSDSATYLCAVQPHDMRFGAGTRLTVKP
Vbeta: SQTIHQWPATLVQPVGSPLSLECTVEGTSNPNLYWYRQAAGRGLQLLFYSVGIGQISSEVPQNLSASRPQDRQFILSSKKLLLSDSGFYLCAWSGLVAEQFFGPGTRLTVL
